This is an account of results in paper PMC6694833, “Rational Design of Zika Virus Subunit Vaccine with Enhanced Efficacy” (Journal of Virology, 2019).

For one assay, the target named is Z004. The assay is described as follows: ELISA. The settings on record: read at the highest MAb concentration plotted (about 2000 ng/ml, estimated from the x axis); parent: est. 3.5; read off a plot.
The target in a further assay is ZKA64-LALA. The assay is described as follows: ELISA. To be noted: read at the highest MAb concentration plotted (about 2000 ng/ml, estimated from the x axis); parent: est. 3.4; read off a plot.
Assay [1] concerns the target ZV-2, ZIKV EDIII-specific nonneutralizing mouse MAb. The assay is described as follows: ELISA. To be noted: read at the highest MAb concentration plotted (about 500 ng/ml, estimated from the x axis); parent: est. 3.6; read off a plot.
Another assay addresses ZV-54. The assay is described as follows: ELISA. The settings on record: read at the highest MAb concentration plotted (about 250 ng/ml, estimated from the x axis); parent: est. 3.7; read off a plot.
Assay [2] addresses ZV-67, ZIKV EDIII-specific neutralizing MAb. Description: ELISA. The settings on record: read at the highest MAb concentration plotted (about 500 ng/ml, estimated from the x axis); parent: est. 3.6; read off a plot.
Assay [3] concerns the target T1, ZIKV EDIII protein containing residues 298 to 409 (wild type) fused with a C-terminal human IgG1 Fc tag (Zika virus, strain ZikaSPH2015 (GenBank …, UniProt A0A0U3FSM8, strain)).
T1 construct: also called wild-type EDIII; WT EDIII; not shown: Fc (human IgG1), C-terminal, kept
The assay is described as follows: ELISA; plates coated with wild-type or mutant ZIKV EDIII protein overnight at 4°C, blocked with 2% fat-free milk in PBST; serially diluted MAbs, then HRP-conjugated anti-mouse IgG-Fab or anti-human IgG-Fab, 1 h at 37°C; absorbance at 450 nm. To be noted: both partners purified. (ELISA stands for enzyme-linked immunosorbent assay.)

“ZIKV EDIII protein containing residues 298 to 409 (wild type) fused with a C-terminal human IgG1 Fc tag M375N; E377T”: the response with Z004 was 3.5 A450; with ZKA64-LALA, 3.4 A450; in assay [1] it was 0.15 A450; with ZV-54 it was 3.7 A450; in assay [2] it was 3.6 A450.

B1: ZV-67, ZIKV EDIII-specific neutralizing MAb (antibody, V domains shown)
VH: QAQLQQSGTGLARPGASVKLSCKASGYTFTSYGISWVTQRAGQGLEWIGVIYPRSGNTYYNEKFRGKATLTADKSSSSAYMELRGLTAEDSAVYFCARENYGSVYWGQGTTLTVSS
VL: DIVMTQSQKFMSTSVGDRVSITCKASQNVGTAVAWYQQKPGQSPKLLIYSASNRYTGVPDRFTGSGSGTDFTLTISNMQSEDLADYFCQQFSSYPYTFGGGTKLEIK
notes: also called MAb ZV-67; human MAb ZV-67; source: bought: Absolute Antibody
With B1, the binding result in assay [3] is given as “binds”.

B2: ZV-2, ZIKV EDIII-specific nonneutralizing mouse MAb (antibody, V domains shown)
VH: QVQLQESGAELMKPGASVKLSCKTSGYTFIGYWIEWLKQRPGHGLEWVGEIFPGSGRTKYNEKFKGRATFTADTSSNMAYMQLSSLTTEDSAIYYCARYYYGSYYALDYWGQGTSVTVSS
VL: DIVMTQSPSSLSVSAGEKVTLSCKSSQSLLHSGNQKNYLAWYQQKPGQAPKLLIYGASTRESGVPDRFTGSGSGTDFTLTISSVQAEDLAVYYCQNDHSYPLTFGAGTKLELK
notes: also called MAb ZV-2; source: bought: BEI Resources
As to B2, the binding result in assay [3] is listed as “binds”.
